# Experimental data reported in publication PMC2645672, “Mechanism of Neuronal versus Endothelial Cell Uptake of Alzheimer's Disease Amyloid β Protein” (PLoS ONE, 2009).
# Experiments:
# [1] = system: differentiated PC12 cells; conditions: cited from earlier work
# [2] = system: wild type (WT) mouse brain slices; conditions: cited from earlier work
# Procedure: The uptake of ^125I-Aβ40 in WT mouse brain slices at 4 or 37°C was determined following 15 min incubation in oxygenated KRB containing 5–900 ng/ml (0.02–3.5 µCi/ml) concentrations of ^125I-Aβ40. The 15 min incubation time was selected based on our earlier observations that ^125I-Aβ40 uptake in the brain slices was linear up to 15 mi ...
# [3] = system: bovine brain microvascular endothelial (BBME) cells; assay: Cellular uptake by flow cytometry in BBME cells; conditions: F-Aβ40 and AF633-Trf simultaneously, cells trypsinized
# Procedure: Bovine brain microvascular endothelial (BBME) cells were obtained frozen from Cell Applications Inc. (San Diego, CA) and were grown in 75 cm^2 cell culture flasks coated with collagen. The growth medium was made of equal parts DMEM and F-12 Ham nutrient mix containing amphotericin B (2.5 µg/ml), HEPES (10 mM), donor horse serum (10%), penicillin (100 units/ml), and gentamicin sulphate (15 µm/ml). After reaching 70–80% confluency, the cells were harvested, seeded (80,000 cells/cm^2) on six-well cell culture plates coated with 0.01% rat tail collagen, and grown under 5% CO2 at 37°C.
# (§1) In addition, flow cytometry studies were conducted to quantify the uptake of F-Aβ40 or F-Aβ42 and AF633-Trf by PC12 cells and BBME cells at 4°C or under ATP depleted conditions. At the end of these flow cytometry experiments, the cells were washed three times with ice-cold PBS, trypsinized, and centrifuged at 2000 ×g. The cell pellet was washed with and re-suspended in ice cold PBS, and analyzed.
# (§2) FACScan (Becton Dickinson FACS canto, San Jose, CA) was equipped with 488 nm laser and 530/30 band-pass filter to analyze F-Aβ40 or F-Aβ42 as well as 633 nm laser and 660/20 band-pass filter to analyze AF633-Trf. […] The cellular fluorescence from this cell population was presented as histograms along with relevant statistical values such as geometric mean and coefficient of variance.
# [4] = system: differentiated PC12 cells
# [5] = system: differentiated PC12 cells; assay: Cellular uptake by flow cytometry in differentiated PC12 cells; conditions: for Uptake at 4°C versus 37°C (histograms of cellular fluorescence), F-Aβ42 experiment: 15 µg/ml F-Aβ42 and 20 µg/ml AF633-Trf, 30 min, cells trypsinized
# Procedure: Rat PC12 cells were plated on glass coverslips or coverslip-bottomed dishes and cultured in DMEM supplemented with: 10% fetal bovine serum, 5% horse serum, 4 mM glutamine, 200 units/ml penicillin, 200 µg/ml streptomycin, and 100 ng/ml nerve growth factor (NGF) (Harlan, Indianapolis, IN) at 37°C under 5% CO2. Uptake studies were conducted 5–7 days after plating, when the cells were well differentiated and the neurite growth was prominent.
# The PC12 cells were dispersed in growth medium containing 100 ng/ml NGF (Harlan Bioproducts, Indianapolis, IN) and seeded at a density of 50,000/well in 6-well plates. On the seventh day, following sets of experiments were conducted on the differentiated PC-12 cells:
# • To determine the linearity of F-Aβ40 uptake, PC-12 cells were pre-incubated in serum free DMEM for 30 min at 37°C and then incubated with DMEM solution containing 3–15 µg/ml F-Aβ40 for 30 min at 37°C. • To determine the saturability of F-Aβ40 uptake, the PC-12 cells were pre-incubated in 150 µg/ml of unlabeled Aβ40 for 30 min at 37°C, followed by a 30 min incubation in the same solution spiked with 15 µg/ml F-Aβ40.
# At the end of these experiments, the cells were dissociated with trypsin and centrifuged at 2000 ×g. The cell pellet was washed with and re-suspended in ice cold PBS and analyzed by flow cytometry.
# To examine the effect of temperature and cellular energy on the internalization of F-Aβ40 and F-Aβ42, the uptake studies were conducted at 4°C or under ATP depleted conditions. In the studies conducted at 4°C, steps outlined previously to investigate clathrin mediated endocytosis were repeated, but at 4°C. In ATP depletion studies, the PC12 cells or RPH neurons were pre-incubated for 30 min in glucose free DMEM containing 0.1% sodium azide and 50 mM 2-deoxy-D-glucose followed by the incubation with glucose free DMEM containing 20 µg/ml AF633-Trf and 15 µg/ml F-Aβ40 for 30 min at 37°C.
# as §1, §2
# [6] = system: differentiated PC12 cells; assay: Cellular uptake and localization by microscopy in differentiated PC12 cells; conditions: F-Aβ40 and AF633-Trf co-incubated, confocal
substance,measurement,setting,value
125I-Aβ40: human Aβ40 labeled with 125I using the chloramine-T procedure,Dependence of internalization by differentiated PC12 cells on donor concentration,[1],linearly dependent upon the donor concentration
same,Internalization by differentiated PC12 cells at 4°C,[1],internalized even at 4 °C
same,Time course of uptake in brain slices,[2],linear up to 15 min
"AF633-Trf: Alexa Fluor 633 labeled transferrin, a clathrin mediated endocytosis marker [reference compound]",Cellular uptake in BBME cells at 4°C compared to 37°C (fluorescence intensities),[3],decreased significantly
same,Uptake in ATP depleted cells versus normal cells (microscopy),[4],no detectable
same,"Uptake at 4°C versus 37°C (histograms of cellular fluorescence), F-Aβ42 experiment",[5],significantly lower
same,Cellular location after 15 min incubation,[6],juxta-nuclear region
F-Aβ40: fluorescein labeled human Aβ40,Cellular uptake in BBME cells at 4°C compared to 37°C (fluorescence intensities),[3],decreased significantly
same,"Uptake in cells treated with filipin, inhibitor of caveolae mediated endocytosis",[4],not significantly affected
same,Fluorescence intensity on co-incubation with unlabeled Aβ40 compared to F-Aβ40 alone (saturability),"[5]; 150 µg/ml unlabeled Aβ40 + 15 µg/ml F-Aβ40 vs 15 µg/ml F-Aβ40 alone, 37°C",decreased
same,Dependence of accumulation on donor concentration,"[5]; donor concentrations 3-15 µg/ml, 30 min at 37°C",linear with the donor concentrations
same,Cellular location after 15 min incubation,[6],mainly confined to the cell membrane
same,Cellular location at the end of 45 min incubation,[6]; 45 min,appeared to move into the cytosol
same,Intensity in the cells by the end of 60 min incubation,[6]; 60 min,increased substantially
F-Aβ42: fluorescein labeled Aβ42,"Uptake at 4°C versus 37°C (histograms of cellular fluorescence), F-Aβ42 experiment",[5],not significantly different
